Results on one molecule are retold here after patent US11479587B2, “Cationic intrinsically disordered antimicrobial peptides” (priority 2016, dated 2022).

In the experiment the test system is E. coli ribosomal proteins. Put plainly: Immunodotblot binding to HPLC-separated ribosomal proteins. Particulars: 10 μg/ml, 4° C. overnight, dot blot. An excerpt: The question whether CIDAMP-dependent morphological changes in bacteria are direct or indirect was addressed by testing the hypothesis that CIDAMPs directly bind to ribosomes and ribosomal proteins. For this purpose, ribosomes of E. coli were separated and partially purified by SulfoLink®-coupling resin-chromatography (Maguire et al., 2008, RNA, 14, 188-195) followed by reversed phase high performance liquid chromatography (HPLC) using an Aeris 3.6 μm C18 widepore RP-HPLC column (Phenomenex) and an increasing gradient of acetonitrile (ACN, max.: 80% v/v) in aqueous 0.1% trifluoroacetic acid.
Aliquots of each HPLC fraction were lyophilized, the residues dissolved in 5 μl water each and then applied to a nitrocellulose membrane. After blocking with 5% bovine serum albumin in PBS and washing with PBS, biotinylated rhHRNR2591-2694, a 103 amino acid fragment of hornerin, (10 μg/ml) was added and incubated at 4° C. overnight. After 4-times washing, Strep-Tactin® (1:200; iba lifescience) in PBS was added, incubated for 1 h and then, after 6 times washing with PBS, substrate was added and the blots developed.

B1: biotinylated rhHRNR2591-2694: biotinylated rhHRNR2591-2694, a 103 amino acid fragment of hornerin (protein)
chain: SQHGSGSGHSSGYGQHGSRSGQSSRGERHGSSSGSSSHYGQHGSGSRQSSGHGRQGSGSGQSPSRGRHGSGLGHSSSHGQHGSGSGRSSSRGPYESRLGHSSVF
modifications: biotinylated (position not given)
notes: biotinylated rhHRNR2591-2694, a 103 amino acid fragment of hornerin
In the case of B1, the “binding to ribosomal proteins (in words)” value was “specific binding”.
